Test results from US20200002421A1, “ANTI-B7-H3 ANTIBODIES AND ANTIBODY DRUG CONJUGATES” (AbbVie Inc., priority 2016, published 2020).
Where a chain is given by its changes, count along the chain named.

B1: chAb2: chimeric anti-B7-H3 antibody huIgG1/k, parental hybridoma Ab2; VH SEQ ID NO: 1, VL SEQ ID NO: 5 (antibody, V domains shown)
VH: QVQLQQPGAELVKPGASVKLSCKASGYTFTSYWMHWVKQRPGQGLEWIGMIHPDSGTTNYNEKFRSKATLTVDKSSSTAYMQLSSLTSEDSAVYYCAVYYGSTYWYFDVWGTGTTVTVSS
VL: DVVMTQTPLSLPVSLGDQAYISCRSSQSLVHINGNTYLHWYRQKPGQSPKLLIYKVSNRFSGVPDRFSGSGSGTDFTLKISRVEAEDLGVYFCSQSTHFPFTFGSGTKLEIK
modifications: human IgG1/kappa constant regions; Synthetic chAb2 VH amino acid sequence; Synthetic chAb2 VL amino acid sequence
B2: Ab17: mouse hybridoma anti-B7-H3 monoclonal antibody, mouse IgG2b/k (antibody, V domains shown)
VH: EVKLVESGGGLVQPGGSLKLSCAASGFTFSSYIMSWVRQTPEKRLEWVASIVSSNITYYPDSMKGRFTISRDNARNILYLQMSSLKSEDTAMYYCARSGTRAWFAYWGQGTLVTVSA
VL: DIVLTQSPASLAVSLGQRATISCRASKSVSTSAYSYMHWYQQKPGQPPKLLIYLASNLESGVPARFSGSGSGTDFTLNIHPVEEEDAATYYCQHSRELPYTFGGGTKLEIK
B3: Ab3: mouse hybridoma anti-B7-H3 monoclonal antibody, mouse IgG1/k (antibody, V domains shown)
VH: QVQLQQPGAELVKPGASVKLSCKASGYTFSSYWMHWVKQRPGQGLEWIGLIHPDSGSTNYNEMFKNKATLTVDRSSSTAYVQLSSLTSEDSAVYFCAGGGRLYFDYWGQGTTLTVSS
VL: B1 VL with Y20S, I32S, N35D, H39R, R42L, S81T, F99V, F101Y, S105G
B4: Ab4: mouse hybridoma anti-B7-H3 monoclonal antibody, mouse IgG2b/k (antibody, V domains shown)
VH: QVQLQQPGAELVKPGASVKLSCKASGYSFTSYWMHWVKQRPGQGLEWIGMIHPNSGSNNYNEKFKSKATLTVDKSSNTAYMQLSSLTSEDSAVYYCARRLGLHFDYWGQGTTLTVSS
VL: DIVMTQSQKFMSTPVGDRVSITCKASQNVGTAVAWYQQKPGQSPKLLIYSASNRYTGVPDRFTGSGSGTDFTLTISNMQSEDLADYFCQQYSSYPYTFGGGTKLEIK
B5: Ab5: mouse hybridoma anti-B7-H3 monoclonal antibody, mouse IgG1/k (antibody, V domains shown)
VH: QVQLQQPGDELVKPGASVKLSCKTSGYTFTTDWMHWVKQRPGQGLEWIGMIHPNSGTTNYNEKFKSKAALTVDKSSSTACMQLSSLTSEDSAVYYCARSYWKWYFDVWGTGTTVTVSS
VL: QIVLTQSPAIMSASLGEEITLTCSASSSVSYMHWYQQKSGTSPKLLIYSTSNLASGVPSRFSGSGSGTFYSLTISSVEAEDSADYYCHQWTSYMYTFGGGTKLEIK
B6: Ab12: mouse hybridoma anti-B7-H3 monoclonal antibody, mouse IgG1/k (antibody, V domains shown)
VH: EVQLVESGGGLVKPGGSLKLSCAASGFTFSSYAMSWVRQTPEKRLEWVATISSGTNYTYYPDSVKGRFTISRDNAKNTLYLQMTSLRSEDTAMYYCARQGRYSWIAYWGQGTLVTVSA
VL: DIVLTQSPASLAVSLGQRATISCRASKSVSTSDYSYMHWNQQKPGQPPKLLIYLASNLESGVPARFSGSGSGTDFTLNIHPVEEEDAATYYCQHSRELLTFGAGTKLELK
B7: Ab8: mouse hybridoma anti-B7-H3 monoclonal antibody, mouse IgG1/k (antibody, V domains shown)
VH: EVKLVESGGGLVKPGGSLKLSCAASGFTFSSYGMSWVRQTPEKRLEWVATISGGGNYTYCPDSVKGRFTISRDNAKNNLYLQMSSLRSEDTALYYCTRQRGYDYHYAMDFWGQGTSVTVSS
VL: DIQMTQSPASLSVSVGETVTITCRASENIYSNLAWHQQKQGKSPQLLVYAATNLADGVPSRFSGNGSDTQYSLKINSLQSEDFGSYFCQNFWGTSWTFGGGTKLEIK
B8: Ab11: mouse hybridoma anti-B7-H3 monoclonal antibody, mouse IgG1/k (antibody, V domains shown)
VH: EVKLVESGGGLVQPGGSLRLSCATSGFTFTNYYMSWVRQPPGKALEWLGFIRNKANDYTTEYSASVKGRFTISRDNSQSILYLQMNTLRAEDSATYYCARESPGNPFAYWGQGTLVTVSA
VL: DIVMTQSPSSLTVTAGEKVTMTCKSSQSLLNSGTQKNFLTWYQQKPGQPPKLLIYWASTRESGVPDRFTGSGSGTDFTLTISSVQAEDLAVYFCQNDYIYPLTFGAGTKLELK

test system: HCC38 cell line; assay: In vitro cell viability assay (CellTiter-Glo), HCC38; type: cell-based, human; conditions: conjugated to synthon CZ
Experimental: The tumor cell lines HCC38 (breast cancer), NCI-H1650 (NSCLC) and NCI-H847 (small cell lung cancer cell line) were obtained from American Type Culture Collection (ATCC). Cells were grown in 96-well culture plates using recommended growth media overnight at a density of 5×10^3 (HCC38) or 20×10^3 (NCI-H847) or 40×10^3 (NCI-H1650) per well. The following day, treatments were added in fresh media to triplicate wells. Cellular viability was determined 5 days later using the CellTiter-Glo Luminescent Cell Viability Assay kit (Promega), as directed in the manufacturer's protocol. Cell viability was assessed as percentage of control untreated cells.

| Molecule | cytotoxicity in cells expressing human B7-H3 / HCC38 cell line (in words) |
| --- | --- |
| B1 | weak cytotoxicity |

target: T1, huB7-H3 (Homo sapiens, UniProt Q5ZPR3); assay: Biacore T200 SPR binding kinetics, mAb capture; conditions: Table 3
T1 construct: His tag (6xHis) (C)
T1 sequence (Q5ZPR3 with tags, fused parts or gaps): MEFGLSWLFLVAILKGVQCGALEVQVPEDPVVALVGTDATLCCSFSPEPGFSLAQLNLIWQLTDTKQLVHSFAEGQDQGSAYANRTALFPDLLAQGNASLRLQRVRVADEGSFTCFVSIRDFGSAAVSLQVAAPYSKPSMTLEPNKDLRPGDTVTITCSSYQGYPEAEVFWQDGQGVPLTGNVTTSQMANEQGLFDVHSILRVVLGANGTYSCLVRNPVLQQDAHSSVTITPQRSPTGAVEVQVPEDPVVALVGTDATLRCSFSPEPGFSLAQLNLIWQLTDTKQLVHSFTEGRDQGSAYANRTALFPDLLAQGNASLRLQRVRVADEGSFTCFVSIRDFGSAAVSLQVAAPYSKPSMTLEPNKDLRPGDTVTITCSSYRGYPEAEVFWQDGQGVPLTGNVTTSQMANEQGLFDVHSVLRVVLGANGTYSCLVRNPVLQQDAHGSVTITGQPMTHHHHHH
Experimental: The binding affinity of the purified anti-B7-H3 monoclonal antibodies was determined by surface […]. […] The binding kinetics were derived from SPR measurements using a Biacore T200 instrument and a mAb capture approach (as described in the materials and methods below).
Biacore T200 SPR instruments were used to measure the binding kinetics of human B7-H3 (4Ig-B7-H3 variant) (analyte) binding to various mAbs (ligands). The assay format was Fc-based capture via immobilized anti-mouse (Fc) (Pierce 31170) or immobilized anti-human (Fc) (Pierce 31125). A standard amine coupling protocol was employed to immobilize the capture reagents via primary amines to the carboxy-methyl (CM) dextran surface of CM5 sensorchips (Biacore); capture antibodies were coupled to a level of approximately 5000 RU. For binding kinetic measurements the assay buffer was HBS-EP+(Biacore): 10 mM Hepes, pH7.4, 150 mM NaCl, 3 mM EDTA, 0.05% polysorbate 20. During the assay, all measurements were referenced against the capture surface alone. Each assay cycle consisted of the following steps: 1) Capture of ligand to approximately 50 RU; 2) Analyte injection over both reference and test surface, 240 μL at 80 μL/min, after which the dissociation was monitored for 900 seconds at 80 μL/min; 3) Regeneration of capture surface with low pH glycine. For kinetic determinations analyte injections were 3-point, 9-fold dilution series of 900 nM, 100 nM and 11.11 nM, buffer only injections were included for secondary referencing. Data were processed and fit to a 1:1 binding model using Biacore T200 Evaluation Software to determine the binding kinetic rate constants, ka (on-rate) and kd (off-rate), and the equilibrium dissociation constant (affinity, KD).

| huB7-H3 ka(1/Ms) [M⁻¹ s⁻¹] | Molecule |
| --- | --- |
| 540000 | B2 |
| 520000 | B3 |
| 690000 | B4 |
| 1.3e+06 | B5 |
| 38000 | B6 |
| 58000 | B7 |
| 20000 | B8 |

test system: not listed separately; assay: Conjugation observation (precipitation after conjugation, Method A); type: physicochemical; conditions: conjugated to synthon CZ
Experimental: Table 6 provides cell surface binding and cytotoxicity activity of anti-B7-H3 chimera ADCs against breast cancer cell HCC38 expressing human B7-H3.
A solution of Bond-Breaker™ tris(2-carboxyethyl)phosphine (TCEP) solution (10 mM, 0.017 mL) was added to a solution of antibody (10 mg/mL, 1 mL) preheated to 37° C. The reaction mixture was kept at 37° C. for 1 hour. The solution of reduced antibody was added to a solution of synthon (3.3 mM, 0.160 mL in DMSO) and gently mixed for 30 minutes. The reaction solution was loaded onto a desalting column (PD10, washed with Dulbecco's phosphate-buffered saline [DPBS] 3× before use), followed by DPBS (3 mL). The purified ADC solution was filtered through a 0.2 micron, low protein-binding 13 mm syringe-filter and stored at 4° C.

| Molecule | precipitation following conjugation to synthon CZ (in words) |
| --- | --- |
| B1 | precipitated |

target: T2, human B7-H3 (Homo sapiens, UniProt Q5ZPR3); assay: Epitope grouping by pair-wise Biacore SPR binding; conditions: simultaneous binding assay, FIG. 1
T2 construct: His tag (6xHis) (C)
T2 sequence (Q5ZPR3 with tags, fused parts or gaps): T1 sequence (Q5ZPR3 with tags, fused parts or gaps)
Excerpt: Pair-wise binding assays performed on Biacore T200 SPR instruments were used to determine the relative epitope grouping for the murine anti-B7-H3 mAbs as described in the methods below. […] Epitope groups are represented as individual ovals, some of which overlap with each other. Antibodies in different epitope groups can bind to B7-H3 simultaneously and likely bind to different epitopes while antibodies within a given epitope group cannot bind to B7-H3 simultaneously and likely bind to overlapping epitopes. The grouping information was derived from a simultaneous binding assay as described in materials and methods. Ab3, Ab4, Ab5, Abl 1, Ab12, and Ab8 groupings were ambiguous
Pair-wise binding assays performed on Biacore T200 SPR instruments were used to determine the relative epitope grouping for a series of anti-B7-H3 mAbs. The assay format was Fc-based capture via immobilized anti-mouse (Fc) (Pierce 31170) or immobilized anti-human (Fc) (Pierce 31125). A standard amine coupling protocol was employed to immobilize the capture reagents via primary amines to the carboxy-methyl (CM) dextran surface of CM5 sensorchips (Biacore); capture antibodies were coupled to a level of approximately 2000 RU. Epitope grouping measurements were done at 12° C. (low temperature allows for grouping information on fast off-rate mAbs), the assay buffer was HBS-EP+(Biacore): 10 mM Hepes, pH7.4, 150 mM NaCl, 3 mM EDTA, 0.05% polysorbate 20. Each assay cycle consisted of the following steps in a four flowcell system: 1) separate test mAbs were captured in flowcells 2, 3 & 4 (flowcell 1 was reference, no test mAb); 2) all 4 flowcells were then blocked by injection with isotype control mAb or isotype mAb cocktail at 50 μg/mL; 3) all 4 flowcells were then injected with antigen or buffer only (buffer only is for double referencing, done for each mAb pair individually); 4) all 4 flowcells were then injected with 2nd test mAb at 10 μg/mL; 5) all 4 flowcells were then regenerated with glycine, pH1.5. The assay was done for each test mAb pair in reciprocal orientations. Simultaneous binding was evaluated examining the ratio of the 2nd test mAb response to the Ag response (RUmAb2/RUAg); if this ratio was equal to or greater than 0.2 the interaction was scored as a simultaneous binder. From this pair-wise binding assay data a “venn” style diagram was constructed manually to depict relative epitope groupings.

| epitope grouping | Molecule |
| --- | --- |
| ambiguous | B3 |
| ambiguous | B4 |
| ambiguous | B5 |
| ambiguous | B6 |
| ambiguous | B7 |
| ambiguous | B8 |
